Experiments:
[1] = biological target: GBP1 M139E, non-farnesylated (human) (UniProt P32455); test: SEC
[2] = biological target: GBP1 M139R, non-farnesylated (human) (UniProt P32455); test: SEC
[3] = biological target: GBP1 Δ207-223 variant, farnesylated (human) (UniProt P32455); test: cross-linking
[4] = biological target: GBP1 Δ207-223 variant, non-farnesylated (human) (UniProt P32455)
[5] = biological target: GBP1 Δ207-223 variant, non-farnesylated (human) (UniProt P32455); test: cross-linking
GTP hydrolysis assay = biological target: the molecule itself; test: GTP hydrolysis assay
cross-linking = biological target: the molecule itself; test: cross-linking
[6] = biological target: T1, human guanylate-binding protein 1 (GBP1), wild type, non-farnesylated (human), P32455; test: GTP hydrolysis assay; conditions: remark: other sources report otherwise
T1 chain: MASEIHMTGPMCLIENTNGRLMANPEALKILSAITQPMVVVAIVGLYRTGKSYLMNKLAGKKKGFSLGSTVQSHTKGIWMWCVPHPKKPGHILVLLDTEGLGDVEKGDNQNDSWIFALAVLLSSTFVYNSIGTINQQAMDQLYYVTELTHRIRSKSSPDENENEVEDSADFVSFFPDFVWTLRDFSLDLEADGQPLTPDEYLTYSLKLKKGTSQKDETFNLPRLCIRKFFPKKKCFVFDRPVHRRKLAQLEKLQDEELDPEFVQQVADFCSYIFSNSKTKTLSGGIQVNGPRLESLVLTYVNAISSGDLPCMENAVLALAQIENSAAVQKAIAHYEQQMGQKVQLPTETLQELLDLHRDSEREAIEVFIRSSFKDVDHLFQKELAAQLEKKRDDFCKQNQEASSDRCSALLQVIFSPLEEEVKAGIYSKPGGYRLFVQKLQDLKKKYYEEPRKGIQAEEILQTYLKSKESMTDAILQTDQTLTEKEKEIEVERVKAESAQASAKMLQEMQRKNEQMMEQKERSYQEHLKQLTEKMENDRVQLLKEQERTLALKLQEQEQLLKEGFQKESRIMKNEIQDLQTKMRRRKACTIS

[7] = biological target: T1, human guanylate-binding protein 1 …; test: cross-linking; conditions: remark: other sources report otherwise
[8] = biological target: T2, human guanylate-binding protein 1 (GBP1), wild type, farnesylated (human), P32455; test: cryo-EM structure; conditions: remark: other sources report otherwise
T2 chain: T1 chain

“GBP1 M139E, non-farnesylated (from UniProt P32455 1-592) (natural protein)” was tested, and the stoichiometry N [1] was 2.

In the case of “GBP1 M139R, non-farnesylated (from UniProt P32455 1-592) (natural protein)”, the stoichiometry N [2] is reported as 2.

“GBP1 Δ207-223 variant, farnesylated (from UniProt P32455) (natural protein)” gave a stoichiometry N [3] of 2.

In the case of “GBP1 Δ207-223 variant, non-farnesylated (from UniProt P32455 1-592) (natural protein)”, the catalytic GTPase activity against wild-type (GTP hydrolysis assay) [4] is reported as 1.7 fold and the stoichiometry N [5] is reported as 2.

B1: GBP1 Δ207-213 variant, non-farnesylated (natural protein)
chain: MASEIHMTGPMCLIENTNGRLMANPEALKILSAITQPMVVVAIVGLYRTGKSYLMNKLAGKKKGFSLGSTVQSHTKGIWMWCVPHPKKPGHILVLLDTEGLGDVEKGDNQNDSWIFALAVLLSSTFVYNSIGTINQQAMDQLYYVTELTHRIRSKSSPDENENEVEDSADFVSFFPDFVWTLRDFSLDLEADGQPLTPDEYLTYSLGGGSGGGSQKDETFNLPRLCIRKFFPKKKCFVFDRPVHRRKLAQLEKLQDEELDPEFVQQVADFCSYIFSNSKTKTLSGGIQVNGPRLESLVLTYVNAISSGDLPCMENAVLALAQIENSAAVQKAIAHYEQQMGQKVQLPTETLQELLDLHRDSEREAIEVFIRSSFKDVDHLFQKELAAQLEKKRDDFCKQNQEASSDRCSALLQVIFSPLEEEVKAGIYSKPGGYRLFVQKLQDLKKKYYEEPRKGIQAEEILQTYLKSKESMTDAILQTDQTLTEKEKEIEVERVKAESAQASAKMLQEMQRKNEQMMEQKERSYQEHLKQLTEKMENDRVQLLKEQERTLALKLQEQEQLLKEGFQKESRIMKNEIQDLQTKMRRRKACTIS
B1 was tested, and the “fold lower dimerization affinity than wild-type” value (GTP hydrolysis assay) was 3 fold and the “stoichiometry N” value (cross-linking) was 2.

B2: GBP1 Δ207-216 variant, non-farnesylated (natural protein)
chain: MASEIHMTGPMCLIENTNGRLMANPEALKILSAITQPMVVVAIVGLYRTGKSYLMNKLAGKKKGFSLGSTVQSHTKGIWMWCVPHPKKPGHILVLLDTEGLGDVEKGDNQNDSWIFALAVLLSSTFVYNSIGTINQQAMDQLYYVTELTHRIRSKSSPDENENEVEDSADFVSFFPDFVWTLRDFSLDLEADGQPLTPDEYLTYSLGGGSETFNLPRLCIRKFFPKKKCFVFDRPVHRRKLAQLEKLQDEELDPEFVQQVADFCSYIFSNSKTKTLSGGIQVNGPRLESLVLTYVNAISSGDLPCMENAVLALAQIENSAAVQKAIAHYEQQMGQKVQLPTETLQELLDLHRDSEREAIEVFIRSSFKDVDHLFQKELAAQLEKKRDDFCKQNQEASSDRCSALLQVIFSPLEEEVKAGIYSKPGGYRLFVQKLQDLKKKYYEEPRKGIQAEEILQTYLKSKESMTDAILQTDQTLTEKEKEIEVERVKAESAQASAKMLQEMQRKNEQMMEQKERSYQEHLKQLTEKMENDRVQLLKEQERTLALKLQEQEQLLKEGFQKESRIMKNEIQDLQTKMRRRKACTIS
In the case of B2, the “fold lower dimerization affinity than wild-type” value (GTP hydrolysis assay) is reported as 1.8 fold and the “stoichiometry N” value (cross-linking) is reported as 2.

B3: human guanylate-binding protein 1 (GBP1), wild type, non-farnesylated, P32455 1-592 (natural protein)
chain: T1 chain
B3 gave a Kd [6] of 1900 nM and a stoichiometry N [7] of 2.

B4: human guanylate-binding protein 1 (GBP1), wild type, farnesylated, P32455 (natural protein)
chain: T1 chain
modifications: here or on the partner: farnesyl moiety, C-terminal (CaaX box motif); farnesyl moiety, C-terminal (CaaX box motif)
B4 gave a subunits (outstretched GBP1 dimers) in one planar disk [8] of 30.

— publication doi:10.1101/2023.08.01.551421 (bioRxiv, 2023)
